Positions count from the first letter of the chain named.
Columns and labels:
Details in all cases: both partners purified
[1] = molecular target: T1, HisPex1p(E798Q) released from its GST fusion (S. cerevisiae, UniProt P24004 1-1043, E798Q); assay: SEC; second gel filtration of the purified heterohexameric complexes after incubation at 37 °C
T1 construct: Pex1p of yeast with a Walker B mutation of the D2 domain; also called Pex1WB^E798Q; Pex1pWB; not shown: His6, N-terminal, kept; GST, C-terminal, cleaved
T1 sequence (looked up): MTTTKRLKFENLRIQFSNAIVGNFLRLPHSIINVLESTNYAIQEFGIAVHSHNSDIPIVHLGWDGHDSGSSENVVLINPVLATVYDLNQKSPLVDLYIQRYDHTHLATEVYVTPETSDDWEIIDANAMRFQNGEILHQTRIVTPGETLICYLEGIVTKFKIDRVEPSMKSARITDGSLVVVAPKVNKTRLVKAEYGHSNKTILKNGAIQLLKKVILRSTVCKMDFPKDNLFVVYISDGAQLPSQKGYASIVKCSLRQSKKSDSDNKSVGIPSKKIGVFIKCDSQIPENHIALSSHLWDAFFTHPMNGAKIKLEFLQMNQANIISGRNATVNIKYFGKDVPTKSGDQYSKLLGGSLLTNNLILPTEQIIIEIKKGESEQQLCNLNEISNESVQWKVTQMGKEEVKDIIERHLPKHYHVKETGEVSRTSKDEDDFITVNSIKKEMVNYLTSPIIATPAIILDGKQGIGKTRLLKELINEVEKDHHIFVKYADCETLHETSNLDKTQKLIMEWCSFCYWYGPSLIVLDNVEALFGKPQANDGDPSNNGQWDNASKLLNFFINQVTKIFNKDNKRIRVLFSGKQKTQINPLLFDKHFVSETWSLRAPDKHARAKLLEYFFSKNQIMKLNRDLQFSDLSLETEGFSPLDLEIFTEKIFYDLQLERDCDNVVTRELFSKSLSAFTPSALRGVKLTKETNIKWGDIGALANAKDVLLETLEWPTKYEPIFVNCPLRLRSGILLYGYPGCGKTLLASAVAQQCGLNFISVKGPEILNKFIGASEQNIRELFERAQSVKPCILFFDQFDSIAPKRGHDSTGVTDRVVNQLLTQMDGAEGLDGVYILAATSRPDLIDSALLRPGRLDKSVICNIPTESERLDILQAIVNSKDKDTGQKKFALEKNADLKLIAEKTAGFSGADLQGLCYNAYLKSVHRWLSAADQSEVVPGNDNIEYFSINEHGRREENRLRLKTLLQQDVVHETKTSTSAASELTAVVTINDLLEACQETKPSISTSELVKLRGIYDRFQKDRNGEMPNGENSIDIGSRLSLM

[2] = molecular target: T2, HisPex1p released from HisPex1pGST by thrombin (S. cerevisiae, UniProt P24004 1-1043); assay: SEC; Pex1/6p/Pex15p complex isolated on GSH-agarose, released by thrombin (GST left on the column), Superose 6 (small-scale and preparative) in presence of ATP; anti-His immunoblot or Coomassie, signal intensities by ImageJ
T2 construct: Pex1p, type II AAA-ATPase peroxin of yeast; The GST tag held the complex on GSH-agarose during purification and stayed on the column after thrombin cleavage; source: E. coli Tuner (DE3), co-purified with HisPex6p (NiNTA-agarose, GSH-agarose, thrombin release); not shown: His6, N-terminal, kept; GST, C-terminal, cleaved
T2 sequence (looked up): T1 sequence (looked up) with Q798E

[3] = molecular target: T3, Pex15p(1-315)His (GST removed by thrombin) (S. cerevisiae, UniProt Q08215 1-315); assay: as above
T3 construct: Pex15p of S. cerevisiae, cytosolic part, residues 1 to 315; Same construct as m10 after thrombin cleavage; detected by anti-His antibodies; Printed mass 36 kDa; alone it eluted at about 100 kDa; also called Pex15pHis; source: E. coli BL21 (DE3), purified (Glutathione Agarose 4B), released from GSH-agarose by thrombin; not shown: GST, N-terminal, cleaved; His6, C-terminal, kept
T3 sequence (looked up): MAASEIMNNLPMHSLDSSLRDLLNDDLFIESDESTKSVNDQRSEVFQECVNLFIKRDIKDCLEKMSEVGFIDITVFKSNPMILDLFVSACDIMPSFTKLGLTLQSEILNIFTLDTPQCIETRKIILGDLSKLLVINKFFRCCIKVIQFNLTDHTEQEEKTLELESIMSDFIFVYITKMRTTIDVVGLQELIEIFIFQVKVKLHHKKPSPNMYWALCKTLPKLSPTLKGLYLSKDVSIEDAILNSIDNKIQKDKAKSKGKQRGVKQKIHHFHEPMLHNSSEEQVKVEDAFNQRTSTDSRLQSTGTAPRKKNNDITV

- binding result [1]: binds
- stoichiometry N [2]: 0.9 Pex6p per Pex1p
- stoichiometry N [3]: 1 Pex15p per Pex6p
B1: HisPex6p (natural protein, S. cerevisiae, UniProt P33760 1-1030, looked up)
chain: MKASLTFSLSGIYAPCSISRDIYLEYGDKKAECLYGTIRLPQYGPGCTPGKIVHCVLDDSLPFCSIVVPSKLFGFMPTQPTMDFCYFEPILDNVVPVLDSVTFLINEQLYSKLMDLPQEMQQIQFLHYKYNINSMETVVHSRDILTSGLCQILNCSPFPQGLVDFTETQLILVNDTEQKLSALKYANEDEEYALPKIGTNSALSIDLESLPCTISRDLLRPAPHINDDNSIYAFTDAETLLRLDVTSGSFITVSNMGCVRLVKLFVLLLPNGFKKRTIYAPPKIIASFPDCSVVTISKSNIGHTDIPIANQVFISRVGGWLQSQKCFQNIILTTLKKFFSESKRILCQNDLIPIAFDSSMADLNIAEENDESDDEDELGQYYKNDSLVWFFVTSAELDCFSKDNSHFIIDPNRTKLITTNITNRRPLPLSRSNLQRYYGFAETFYYDLHIFPYVRQLVNILETSFNCSQRGITLNASVLLHSTTNNVGKATMVRFASKYLGIHLLEIDCLSLTSNSRQLDSTSKIIGYIRAKCENVLPYASPAVIFLAHLDSILLDVNANQDPEAIKLQKSINFEMSKLLDDFTFKFPGTTFVGSVNNIDNVPSSFRSHMRFEILVPVPSEAQRLRIFQWYLSSHELNRDVQQKVPVSYMDNISFSSLSSYSAGLTPLDIKSIVETARMTATARFYQESKKCGWLPQSILITQEDLSKATSKARNEFSVSIGAPQIPNVTWDDIGGIDFVKGEILDTIDMPLKHPELFTSGMKKRSGILFYGPPGTGKTLMAKAIATNFSLNFFSVKGPELLNMYIGESEANVRRVFQKAREAKPCVIFFDEIDSVAPKRGNQGDSGGVMDRIVSQLLAELDGMSTDADGVFVIGATNRPDLLDEALLRPGRFDKLLYLGIPDTDTKQLNILEALTRKFVLDNDVKLIELAKLCPFNYTGADFYALCSDAMLNAMSRIARMVEKKVSQHNELTGENISTRRWFDKIATKEDTKVVVKMEDFLKAQEQLTPSVSRAELNHYEAVRANFEGA
notes: Pex6p, type II AAA-ATPase peroxin of yeast; also called single Pex6p; isolated Pex6p; source: E. coli Tuner (DE3), purified (NiNTA-agarose; with HisPex1pGST also GSH-agarose and size exclusion); not shown: His6, N-terminal, kept

Reference: PMC4740771, “Nucleotide-dependent assembly of the peroxisomal receptor export complex” (Scientific Reports, 2016)
